{"source": "patent US20220047684A1", "about": "“ENZYMES AND METHODS FOR PREVENTING AND TREATING […] IN ANIMALS” (Ecto Development Corporation, priority 2020, published 2022)", "molecules": {"B1": {"name": "E3: carboxylesterase PytH2 (pytH) from Sphingobium wenxiniae, amino acid SEQ. ID No. 3, DNA SEQ. ID No. 6; recombinant, His-tagged (protein, listed as Sphingobium wenxiniae)", "chain": "MTVTDIILIHGALNRGACYDAVVPLLEARGYRVHAPDLTGHTPGDGGHLSVVDMEHYTRPVADILARAEGQSILLGHSLGGASISWLAQHHYDKVAGLIYLTAVLTAPGITPETFVLPGEPNRGTPHALDLIQPVDEGRGLQADFSRLERLREVFMGDYPGEGMPPAEQFIQTQSTVPFGTPNPMEGRALEIPRLYEALDDVVIPIAVQRQMQKEFPGPVAVVSLPASHAPYYSMPERLAEAIADFADAPAEYRQTATKAGPDRPAGADGGRADRADLP", "modifications": "His tag", "notes": "ID No. 6; recombinant, His-tagged"}}, "key": {"scuds (Hyalella azteca)": {"system": "scuds (Hyalella azteca)", "assay": "Scud bioassay: scuds exposed to permethrin with or without enzyme, kill counts", "type": "in vivo", "conditions": "scuds exposed to permethrin plus degrading enzyme versus permethrin alone", "description": "A standard of permethrin (CAS Number […]) was prepared and analyzed by HPLC as a control, then different concentrations of enzymatic solution were added to the standard to find an effective concentration (of pPytH2) needed to degrade the permethrin. After degradation was confirmed through HPLC analysis by the qualification and quantitation of permethrin hydrolysis byproducts, a bioassay was performed with crustaceans (scuds), who are also highly sensitive to pyrethroid toxicity. In the bioassay, scuds were exposed to two different environments. Permethrin was added to the first environment to get a scud kill count without the presence of the enzyme as a control and the next environment was evaluated by adding both permethrin and the degrading enzyme to the scud environment and kill counts were compared.\nThe next step was to test the enzymatic hydrolysis of permethrin in feline blood (cat serum). […] After the cat serum control was analyzed three different concentrations of the enzyme were introduced to the cat serum control and then analyzed by HPLC. […]\n• 37 degree C. • 18 hr • Shanking 1000 rpm Transferred 20 μL rxn mix [4 μg] to 100 mL [containing 10 scuds] At time, 24 h and 48 h the ten scuds were scored: A=Alive and Moving actively BA=Barely Alive—Difficulty swimming away; only legs are moving D=Dead—Not moving at all The results of which are shown in FIGS. 8 and 9."}, "[1]": {"assay": "Order of pyrethroid hydrolysis efficiency of PytH2", "type": "biochemical", "conditions": "pyrethroid substrates", "description": "Activity of the enzyme: In order of hydrolysis efficiency: transpermethrin>cis-permethrin>fenpropathrin>trans-cypermethrin>cis-cypermethrin>cyhalothrin>fenvalerate>deltamethrin>bifenthrin."}, "[2]": {"assay": "Fenpropathrin degradation, HPLC", "type": "biochemical", "conditions": "20 ppm fenpropathrin; 15 minutes at 37 C with shaking", "description": "1000 ppm fenpropathrin was diluted to 5 point curve which was able to detect on HPLC the gradient of 20% water and 80% using the instrument method described above for permethrin. 20 ppm of […] was placed in […] with 10 μL […] and reacted for 15 minutes at 37 C with shaking. HPLC was run on the sample after being diluted 1:1 MeOH using instrument method described above for permethrin. A 90% degradation of fenpropathrin was detected with PytH2."}, "[3]": {"assay": "Cypermethrin degradation, HPLC", "type": "biochemical", "conditions": "50 ppm cypermethrin in 1 mL PBS with 10 μL pPytH2; 15 minutes at 37 C, 300 rpm", "description": "50 ppm of cypermethrin was placed in 1 mL PBS with 10 μL pPytH2, PytH2 and reacted for 15 minutes at 37 C with shaking at 300 rpm. HPLC was run on the sample after being diluted 1:1 MeOH using instrument method described above for permethrin for 10 minutes."}, "[4]": {"assay": "Serum analysis: cat serum plus permethrin +/- E3, HPLC", "type": "biochemical", "conditions": "for % permethrin control: relative to no enzyme", "description": "The next step was to test the enzymatic hydrolysis of permethrin in feline blood (cat serum). Cat serum was acquired, permethrin was added to the serum and was assayed as a control by HPLC. After the cat serum control was analyzed three different concentrations of the enzyme were introduced to the cat serum control and then analyzed by HPLC.\nCat serum was acquired, permethrin was added to the serum and was assayed as a control by HPLC. After the cat serum control was analyzed three different concentrations of the enzyme were introduced to the cat serum control and then analyzed by HPLC."}, "[5]": {"assay": "Characterisation of purified recombinant PytH2 carboxylesterase on p-nitrophenyl esters", "type": "biochemical", "description": "Protein is a carboxylesterase from Sphingobium wenxiniae produced by PytH2 recombinant, expressed in E. coli BL21 (DE3) IUBMB: 3.1.1.88 CAS: 9016-18-6. The Chemical Composition of the carboxylesterase has Chemical purity: >90% buffer of 10 mM phosphate (pH 7.4), 2.7 mM KCI, 137 mM NaCI. Post translational procedures produced in a protease deficient E. coli strain and optimized for synthesis. The protein Appearance: clear, colorless solution:\nUnit definition: One unit is defined as the amount of enzyme required to generate 1 μmol/min of 4-p-nitrophenol from 4-nitrophenyl-L-acetate at 30° C. and pH 7.4. Specific activity: 15±3 μ/mg\nThe enzyme is also deactivated by surfactant compounds such as SDS.\nAn esterase gene (PytH2) of Sphingobium wenxiniae containing an open reading frame (ORF) of 873 bp. The ORF of PytH2 was expressed in Escherichia coli, under the control of the promoter T7. […] E. coli BL21(DE3)/pET28 containing PytH2 expressed a novel 31.4-kDa protein corresponding to PytH2 in an N-terminal fusion with the His-tag peptide. The recombinant Sphingobium wenxiniae PytH2 protein was purified to electrophoretic homogeneity in a one-step affinity chromatography procedure on Ni-NTA Resin. The optimum pH and temperature of the purified enzyme were 7.0 and 37 degrees C., respectively. […] It was also active on pNP-butyrate(C(4) and pNPcaproate(C(6))."}}, "data": [{"molecule": "B1", "values": [{"measurement": "effect on permethrin in scud bioassay", "setting": "scuds (Hyalella azteca)", "result": "hydrolyzed the toxic permethrin molecule and degraded permethrin"}, {"measurement": "order of hydrolysis efficiency", "setting": "[1]", "result": "transpermethrin>cis-permethrin>fenpropathrin>trans-cypermethrin>cis-cypermethrin>cyhalothrin>fenvalerate>deltamethrin>bifenthrin"}, {"measurement": "degradation of fenpropathrin", "setting": "[2]", "result": 90, "unit": "%"}, {"measurement": "Cypermethrin degradation rate", "setting": "[3]", "result": 12.69, "unit": "nmol/min/μg pPytH2"}, {"measurement": "Cis-permethrin (HPLC area)", "setting": "[4]; 2.5 μL E3, 15 min 37 degree C.", "result": 1624.5}, {"measurement": "Total permethrin (area)", "setting": "[4]; 2.5 μL E3, 15 min 37 degree C.", "result": 1624.5, "unit": "area"}, {"measurement": "Total permethrin (expected 2 ppm)", "setting": "[4]; 2.5 μL E3, 15 min 37 degree C.", "result": 0.098, "unit": "ppm"}, {"measurement": "Trans-permethrin (HPLC area)", "setting": "[4]; 2.5 μL E3, 15 min 37 degree C.", "result": 0}, {"measurement": "% permethrin control", "setting": "[4]; 2.5 μL E3, 15 min 37 degree C.", "result": 7.0, "unit": "%"}, {"measurement": "Cis-permethrin (HPLC area)", "setting": "[4]; 10 μL E3, 15 min 37 degree C.", "result": 0}, {"measurement": "Total permethrin (area)", "setting": "[4]; 10 μL E3, 15 min 37 degree C.", "result": 0, "unit": "area"}, {"measurement": "Total permethrin (expected 2 ppm)", "setting": "[4]; 10 μL E3, 15 min 37 degree C.", "result": 0.000, "unit": "ppm"}, {"measurement": "Trans-permethrin (HPLC area)", "setting": "[4]; 10 μL E3, 15 min 37 degree C.", "result": 0}, {"measurement": "% permethrin control", "setting": "[4]; 10 μL E3, 15 min 37 degree C.", "result": 0.0, "unit": "%"}, {"measurement": "% permethrin control", "setting": "[4]; 10 μL E3, 15 min 37 degree C., listed as PytH2", "result": 0.0, "unit": "%"}, {"measurement": "Cis-permethrin (HPLC area)", "setting": "[4]; 30 μL E3, 15 min 37 degree C.", "result": 0}, {"measurement": "Total permethrin (area)", "setting": "[4]; 30 μL E3, 15 min 37 degree C.", "result": 0, "unit": "area"}, {"measurement": "Total permethrin (expected 2 ppm)", "setting": "[4]; 30 μL E3, 15 min 37 degree C.", "result": 0.000, "unit": "ppm"}, {"measurement": "Trans-permethrin (HPLC area)", "setting": "[4]; 30 μL E3, 15 min 37 degree C.", "result": 0}, {"measurement": "% permethrin control", "setting": "[4]; 30 μL E3, 15 min 37 degree C.", "result": 0.0, "unit": "%"}, {"measurement": "cofactor requirement for activity", "setting": "[5]", "result": "does not require a cofactor"}, {"measurement": "stability of the enzyme", "setting": "[5]", "result": "quite stable"}, {"measurement": "activity after heat incubation", "setting": "[5]; after incubation at 70° C.", "result": "inactive"}, {"measurement": "effect of metal ions on the enzyme", "setting": "[5]; metal ions, can recover activity", "result": "strongly inhibited"}, {"measurement": "Specific activity", "setting": "[5]; one unit = 1 μmol/min 4-p-nitrophenol from 4-nitrophenyl-L-acetate at 30° C. and pH 7.4", "result": "15±3", "unit": "μ/mg"}, {"measurement": "substrate preference among pNP (p-nitrophenyl) esters: pNP-acetate (C(2))", "setting": "[5]; pNP-acetate", "result": "best substrate"}, {"measurement": "activity on pNP-butyrate", "setting": "[5]; pNP-butyrate(C(4))", "result": "active"}, {"measurement": "activity on pNPcaproate", "setting": "[5]; pNPcaproate(C(6))", "result": "active"}, {"measurement": "optimum pH", "setting": "[5]; purified enzyme", "result": 7.0}, {"measurement": "optimum temperature", "setting": "[5]; purified enzyme", "result": 37, "unit": "degrees C."}, {"measurement": "effect of surfactant compounds on the enzyme", "setting": "[5]; surfactant compounds such as SDS", "result": "deactivated"}]}]}
